From publication PMC12051018, “Purification and characterization of a thermophilic NAD ^+‐dependent lactate dehydrogenase from Moorella thermoacetica” (FEBS Open Bio, 2025)

What was measured:
purified protein [1] = substrate: C[C@H](O)C(=O)O; experiment: purified protein; format: biochemical, Neomoorella thermoacetica; details: 2 mM NAD+, 50 mM Tris/HCl pH 8, 10 mM NaCl, 4 mM DTE, 65 °C, anoxic
purified protein [2] = substrate: NC(=O)C1=CN([C@@H]2O[C@H](COP(=O)(O)OP(=O)(O)OC[C@H]3O[C@@H](n4cnc5c(N)ncnc54)[C@H](O)[C@@H]3O)[C@@H](O)[C@H]2O)C=CC1; experiment: purified protein; format: biochemical, Neomoorella thermoacetica; details: 1 mM pyruvate, 50 mM Tris/HCl pH 8, 10 mM NaCl, 4 mM DTE, 65 °C, anoxic, varied: cofactor
purified protein [3] = substrate: CC(=O)C(=O)O; experiment: purified protein; format: biochemical, Neomoorella thermoacetica; details: 0.5 mM NADH, 50 mM Tris/HCl pH 8, 10 mM NaCl, 4 mM DTE, 65 °C, anoxic
purified protein [4] = substrate: NC(=O)c1ccc[n+]([C@@H]2O[C@H](COP(=O)(O)OP(=O)(O)OC[C@H]3O[C@@H](n4cnc5c(N)ncnc54)[C@H](O)[C@@H]3O)[C@@H](O)[C@H]2O)c1; experiment: purified protein; format: biochemical, Neomoorella thermoacetica; details: 20 mM L-lactate, 50 mM Tris/HCl pH 8, 10 mM NaCl, 4 mM DTE, 65 °C, anoxic, varied: cofactor
[5] = molecular target: the molecule itself; experiment: SEC; calibrated Superose 6 column, buffer 4 (50 mM Tris/HCl pH 7.5, 150 mM NaCl, 20 mM MgSO4, 20% glycerol, 4 mM DTE, 4 uM resazurin), size standards aprotinin, carbonic anhydrase, ovalbumin, conalbumin; native size 60 kDa against a 34 kDa monomer

Row | Protein | Km (purified protein [1]) | Km (purified protein [2]) | Km (purified protein [3]) | Km (purified protein [4]) | stoichiometry N [5]
1 | LDH from M. thermoacetica (Moorella thermoacetica ATCC 39073) (protein, native full-length, purified from lactate-grown cells; native 60 kDa, dimer) MGLQGPAKVAIIGTGYVGSSTAFALLFSPLVKEMVLVDVNHAKAEGEAMDLAHAATLIRPVEVYAGRPADCAGSRIVIFTAGANQQPGQTRLDLIHRNTAIVRQALPEILHYCPEALVLMVANPVDILTYVAWKISGLPENRVLGSGTVLDSARFRHLLSRHYRVDPRNIHAYVIGEHGDTEVPVWSLANVAGVDLEEFYLMDGMREEEAFRVEISHQVREAAYEIIERKGVTSYGVALALSRIIECILRNEHSVLTISSVIRDLYGIDGEVALSLPCLVGNEGREKVLAIPLVAREKAALKHSATTLQQLIAQLSL | 20000 µM | 100 µM | 1000 µM | 500 µM | 
2 | NAD+-dependent lactate dehydrogenase from Moorella thermoacetica (enzyme, Moorella thermoacetica (DSM 521), UniProt Q2RHG3 1-317, looked up, L-lactate dehydrogenase of Moorella thermoacetica DSM 521, product of the ldh gene (954 bp, predicted mass 34.6 kDa), identified by peptide mass fingerprinting; Native enzyme purified from the organism; on SDS-PAGE about 34 kDa, which fits the predicted monomer; also called LDH; gene product of the ldh gene) MGLQGPAKVAIIGTGYVGSSTAFALLFSPLVKEMVLVDVNHAKAEGEAMDLAHAATLIRPVEVYAGRPADCAGSRIVIFTAGANQQPGQTRLDLIHRNTAIVRQALPEILHYCPEALVLMVANPVDILTYVAWKISGLPENRVLGSGTVLDSARFRHLLSRHYRVDPRNIHAYVIGEHGDTEVPVWSLANVAGVDLEEFYLMDGMREEEAFRVEISHQVREAAYEIIERKGVTSYGVALALSRIIECILRNEHSVLTISSVIRDLYGIDGEVALSLPCLVGNEGREKVLAIPLVAREKAALKHSATTLQQLIAQLSL |  |  |  |  | 2
